{
  "source": "paper PMC8191761",
  "about": "“The three-way junction structure of the HIV-1 PBS-segment binds host enzyme important for viral infectivity”",
  "target": "RHA (DHX9/RNA helicase A) (UniProt Q08211 1-1270)",
  "sequence (Q08211 whole entry)": "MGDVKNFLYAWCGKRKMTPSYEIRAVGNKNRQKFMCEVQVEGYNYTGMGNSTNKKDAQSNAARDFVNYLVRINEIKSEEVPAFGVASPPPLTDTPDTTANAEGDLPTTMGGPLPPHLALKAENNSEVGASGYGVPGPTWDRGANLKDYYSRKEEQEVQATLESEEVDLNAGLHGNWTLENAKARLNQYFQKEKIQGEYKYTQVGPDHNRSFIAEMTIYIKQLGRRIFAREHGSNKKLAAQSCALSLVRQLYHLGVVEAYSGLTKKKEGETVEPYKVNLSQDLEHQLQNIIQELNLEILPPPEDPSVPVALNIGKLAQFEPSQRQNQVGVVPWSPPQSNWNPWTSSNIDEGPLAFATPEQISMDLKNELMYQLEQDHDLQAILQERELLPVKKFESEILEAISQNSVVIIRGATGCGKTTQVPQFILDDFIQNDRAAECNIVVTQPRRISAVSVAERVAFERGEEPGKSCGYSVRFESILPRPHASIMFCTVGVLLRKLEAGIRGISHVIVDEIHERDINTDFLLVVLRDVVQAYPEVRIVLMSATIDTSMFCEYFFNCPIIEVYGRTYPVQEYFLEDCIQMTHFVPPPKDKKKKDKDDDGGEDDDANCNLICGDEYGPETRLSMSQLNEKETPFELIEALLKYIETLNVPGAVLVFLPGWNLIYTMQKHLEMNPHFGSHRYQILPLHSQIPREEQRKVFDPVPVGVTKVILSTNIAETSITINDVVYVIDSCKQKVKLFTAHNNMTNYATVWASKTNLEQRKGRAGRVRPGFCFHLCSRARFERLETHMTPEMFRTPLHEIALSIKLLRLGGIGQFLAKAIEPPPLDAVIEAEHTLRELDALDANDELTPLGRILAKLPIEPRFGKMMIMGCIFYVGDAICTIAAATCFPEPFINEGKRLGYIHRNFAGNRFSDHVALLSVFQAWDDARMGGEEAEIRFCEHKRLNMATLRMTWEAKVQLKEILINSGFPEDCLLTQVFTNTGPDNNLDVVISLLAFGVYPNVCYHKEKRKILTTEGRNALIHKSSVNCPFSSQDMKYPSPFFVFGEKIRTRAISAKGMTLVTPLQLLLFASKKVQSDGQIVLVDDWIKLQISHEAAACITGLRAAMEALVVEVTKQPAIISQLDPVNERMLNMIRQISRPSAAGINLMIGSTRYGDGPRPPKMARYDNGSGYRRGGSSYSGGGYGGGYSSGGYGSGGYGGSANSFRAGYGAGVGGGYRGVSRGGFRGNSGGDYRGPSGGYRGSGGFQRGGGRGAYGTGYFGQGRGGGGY",
  "assay": "EMSA; 0.5 uM RNA, 0-4 uM RHA; preferred over TAR-PolyA; EMSA: binding buffer A, 10 mM Tris-HCl pH 7.5, 140 mM KCl, 10 mM KCl (so in the source); probably NaCl), 1 mM MgCl2, 37 C 10 min, 1.5% agarose; ITC: binding buffer B",
  "conditions": "protein: recombinant; tags: N-terminal His6 and Mocr tags; label: site-specific 2H labels in some NMR samples; three-way junction",
  "data": [
    {"binder": "PBS-segment (nt 125-223) (structured_RNA) RNA: GGCUCUGGUAACUAGAGAUCCCUCAGACCCUUUUAGUCAGUGUGGAAAAUCUCUAGCAGUGGCGCCCGAACAGGGACUUGAAAGCGAAAGUAAAGCCAGAGCC", "values": [
      {"measurement": "binding result", "result": "binds"}
    ]}
  ]
}
